Assay results taken from patent US20040214255A1 (MYRIAD GENETICS, published 2004).

Experiments:
[1] = target: T1, Alpha Acid Glucosidase (GAA), amino acids 513-953 (human, UniProt P10253 513-952); test: yeast two-hybrid
T1 construct: range 513-953
Excerpt: (§1) The new construct was selected directly in the yeast strain PNY200 for its ability to drive tryptophane synthesis (genotype of this strain: […] trp1-901 leu2-3,112 ura3-52 his3-200 ade2 gal4Δ gal80). In these yeast cells, the bait was produced as a C-terminal fusion protein with the DNA binding domain of the transcription factor Ga14 (amino acids 1 to 147). Prey libraries were transformed into the yeast strain BK100 (genotype of this strain: MATα trp1-901 leu2-3,112 ura3-52 his3-200 gal4Δ gal80 LYS2::GAL-HIS3 GAL2-ADE2 met2::GAL7-lacZ), and selected for the ability to drive leucine synthesis. In these yeast cells, each cDNA was expressed as a fusion protein with the transcription activation domain of the transcription factor Ga14 (amino acids 768 to 881) and a 9 amino acid hemagglutinin epitope tag. PNY200 cells (MATα mating type), expressing the bait, were then mated with BK100 cells (MATa mating type), expressing prey proteins from a prey library. The resulting diploid yeast cells expressing proteins interacting with the bait protein were selected for the ability to synthesize tryptophan, leucine, histidine, and adenine. DNA was prepared from each clone, transformed by electroporation into E. coli strain KC8 (Clontech KC8 electrocompetent cells, Catalog No. C2023-1), and the cells were selected on ampicillin-containing plates in the absence of either tryptophane (selection for the bait plasmid) or leucine (selection for the library plasmid). DNA for both plasmids was prepared and sequenced by the dideoxynucleotide chain termination method. The identity of the bait cDNA insert was confirmed and the cDNA insert from the prey library plasmid was identified using the BLAST program to search against public nucleotide and protein databases. Plasmids from the prey library were then individually transformed into yeast cells together with a plasmid driving the synthesis of lamin and 5 other test proteins, respectively, fused to the Ga14 DNA binding domain. Clones that gave a positive signal in the β-galactosidase assay were considered false-positives and discarded. […] Clones that gave a positive signal in the β-galactosidase assay were considered true positives.

[2] = target: T2, 14-3-3-Zeta, amino acids 79-246 (human, UniProt P63104 79-245); test: yeast two-hybrid
T2 sequence: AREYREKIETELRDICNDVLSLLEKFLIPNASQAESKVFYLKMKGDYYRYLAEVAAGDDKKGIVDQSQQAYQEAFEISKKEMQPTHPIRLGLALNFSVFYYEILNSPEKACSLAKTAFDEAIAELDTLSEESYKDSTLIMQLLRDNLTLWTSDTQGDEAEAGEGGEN
Excerpt: as §1

[3] = target: T3, 14-3-3-Eta, amino acids 91-246 (human, UniProt Q04917 91-246); test: yeast two-hybrid
T3 construct: range 91-246
T3 sequence (looked up): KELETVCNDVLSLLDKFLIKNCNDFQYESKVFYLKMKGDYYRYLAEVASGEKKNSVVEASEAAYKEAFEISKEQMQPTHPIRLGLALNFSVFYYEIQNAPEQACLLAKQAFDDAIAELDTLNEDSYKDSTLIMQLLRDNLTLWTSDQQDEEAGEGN
Excerpt: as §1

[4] = target: T4, Tropomyosin 3, amino acids 171-286 (human, UniProt P06753 171-285); test: yeast two-hybrid
T4 construct: range 171-286
Excerpt: as §1

[5] = target: T5, Dynamin, amino acids 104-365 (human, UniProt Q05193 104-365); test: yeast two-hybrid
T5 construct: range 104-365
T5 sequence (looked up): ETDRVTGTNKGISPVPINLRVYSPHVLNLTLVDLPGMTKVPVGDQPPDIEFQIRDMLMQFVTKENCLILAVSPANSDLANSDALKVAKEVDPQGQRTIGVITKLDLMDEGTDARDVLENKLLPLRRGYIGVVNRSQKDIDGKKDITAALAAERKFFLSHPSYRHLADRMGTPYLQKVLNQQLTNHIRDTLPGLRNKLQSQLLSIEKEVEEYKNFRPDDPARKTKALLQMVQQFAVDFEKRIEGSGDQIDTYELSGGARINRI
Excerpt: as §1

[6] = target: T6, Beta-catenin, amino acids 579-782 (human, UniProt P35222 579-781); test: yeast two-hybrid
T6 construct: range 579-782
T6 sequence (looked up): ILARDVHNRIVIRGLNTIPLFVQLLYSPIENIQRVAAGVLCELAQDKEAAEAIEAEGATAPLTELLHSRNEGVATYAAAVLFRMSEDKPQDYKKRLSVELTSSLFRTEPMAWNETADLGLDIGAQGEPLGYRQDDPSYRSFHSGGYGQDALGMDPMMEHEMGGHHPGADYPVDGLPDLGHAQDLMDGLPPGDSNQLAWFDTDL
Excerpt: as §1

[7] = target: T7, Clone C-193 (CARP), amino acids 21-302 (human, UniProt Q15327 21-302); test: yeast two-hybrid
T7 construct: range 21-302
Excerpt: as §1

[8] = target: T8, Alpha-SNAP, amino acids 36-241 (human, UniProt P54920 36-241); test: yeast two-hybrid
T8 construct: range 36-241
T8 sequence (looked up): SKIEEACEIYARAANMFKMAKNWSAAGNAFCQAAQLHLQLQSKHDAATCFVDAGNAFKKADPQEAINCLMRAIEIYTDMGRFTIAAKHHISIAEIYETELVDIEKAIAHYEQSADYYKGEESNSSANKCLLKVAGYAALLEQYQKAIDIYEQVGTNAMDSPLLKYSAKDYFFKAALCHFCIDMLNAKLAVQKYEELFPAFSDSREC
Excerpt: as §1

[9] = target: T9, 14-3-3-Zeta, amino acids 1-200 (human, UniProt P63104 1-200); test: yeast two-hybrid; GLUT4 463-510 with 14-3-3-Zeta 1-200
T9 sequence: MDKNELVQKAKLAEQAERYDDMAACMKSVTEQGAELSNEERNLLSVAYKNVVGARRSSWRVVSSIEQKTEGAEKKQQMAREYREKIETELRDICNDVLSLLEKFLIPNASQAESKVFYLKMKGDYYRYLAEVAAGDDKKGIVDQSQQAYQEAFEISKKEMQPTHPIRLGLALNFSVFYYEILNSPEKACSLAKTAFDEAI
Excerpt: The new construct was selected directly in the yeast strain PNY200 for its ability to drive tryptophane synthesis (genotype of this strain: MATα trp1-901 leu2-3,112 ura3-52 his3-200 ade2 gal4Δ gal80). In these yeast cells, the bait was produced as a C-terminal fusion protein with the DNA binding domain of the transcription factor Ga14 (amino acids 1 to 147). Prey libraries were transformed into the yeast strain BK100 (genotype of this strain: MATα trp1-901 leu2-3,112 ura3-52 his3-200 gal4Δ gal80 LYS2::GAL-HIS3 GAL2-ADE2 met2::GAL7-lacZ), and selected for the ability to drive leucine synthesis. In these yeast cells, each cDNA was expressed as a fusion protein with the transcription activation domain of the transcription factor Ga14 (amino acids 768 to 881) and a 9 amino acid hemagglutinin epitope tag. PNY200 cells (MATα mating type), expressing the bait, were then mated with BK100 cells (MATa mating type), expressing prey proteins from a prey library. The resulting diploid yeast cells expressing proteins interacting with the bait protein were selected for the ability to synthesize tryptophan, leucine, histidine, and adenine. […]

[10] = target: T10, Dynamin, amino acids 250-700 (human, UniProt Q05193 250-700); test: yeast two-hybrid
T10 construct: range 250-700
T10 sequence (looked up): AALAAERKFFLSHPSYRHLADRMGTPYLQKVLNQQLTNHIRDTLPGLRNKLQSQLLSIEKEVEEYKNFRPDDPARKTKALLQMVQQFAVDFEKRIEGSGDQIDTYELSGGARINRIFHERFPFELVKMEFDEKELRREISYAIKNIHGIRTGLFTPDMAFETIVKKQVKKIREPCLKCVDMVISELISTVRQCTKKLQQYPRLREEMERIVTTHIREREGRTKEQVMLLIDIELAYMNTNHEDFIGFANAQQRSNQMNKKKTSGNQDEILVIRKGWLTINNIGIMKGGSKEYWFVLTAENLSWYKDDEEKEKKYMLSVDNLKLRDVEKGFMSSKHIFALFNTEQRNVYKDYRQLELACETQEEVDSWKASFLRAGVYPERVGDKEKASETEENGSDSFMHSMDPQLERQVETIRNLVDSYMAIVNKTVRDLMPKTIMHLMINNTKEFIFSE
Excerpt: as §1

T7 sequence (Q15327 21-302 limits assumed): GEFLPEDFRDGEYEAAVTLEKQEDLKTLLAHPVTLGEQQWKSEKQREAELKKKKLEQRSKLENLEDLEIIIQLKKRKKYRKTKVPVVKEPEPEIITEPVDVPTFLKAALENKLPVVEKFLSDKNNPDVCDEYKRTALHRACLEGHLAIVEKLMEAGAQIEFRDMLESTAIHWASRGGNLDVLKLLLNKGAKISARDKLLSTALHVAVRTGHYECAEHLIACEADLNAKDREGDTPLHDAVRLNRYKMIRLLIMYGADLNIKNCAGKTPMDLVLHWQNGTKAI
T1 sequence (P10253 513-952 limits assumed): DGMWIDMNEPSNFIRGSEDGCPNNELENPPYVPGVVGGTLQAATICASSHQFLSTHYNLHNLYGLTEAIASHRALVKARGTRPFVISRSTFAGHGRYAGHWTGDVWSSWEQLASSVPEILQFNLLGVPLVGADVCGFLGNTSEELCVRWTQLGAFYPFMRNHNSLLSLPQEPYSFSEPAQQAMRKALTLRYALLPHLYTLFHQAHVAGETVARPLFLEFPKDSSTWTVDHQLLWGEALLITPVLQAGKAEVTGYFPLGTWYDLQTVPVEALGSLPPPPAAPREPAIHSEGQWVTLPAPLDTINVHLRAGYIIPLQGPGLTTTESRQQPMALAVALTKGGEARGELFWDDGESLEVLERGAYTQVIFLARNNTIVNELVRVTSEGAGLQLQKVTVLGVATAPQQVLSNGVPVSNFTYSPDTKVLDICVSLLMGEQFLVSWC
T4 sequence (P06753 171-285 limits assumed): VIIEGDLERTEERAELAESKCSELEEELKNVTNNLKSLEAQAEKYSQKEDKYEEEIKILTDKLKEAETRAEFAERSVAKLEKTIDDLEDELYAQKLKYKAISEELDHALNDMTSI

B1: PI-3 kinase p110 subunit, amino acids 1-300 (enzyme)
chain: MCFSFIMPPAMADILDIWAVDSQIASDGSIPVDFLLPTGIYIQLEVPREATISYIKQMLWKQVHNYPMFNLLMDIDSYMFACVNQTAVYEELEDETRRLCDVRPFLPVLKLVTRSCDPGEKLDSKIGVLIGKGLHEFDSLKDPEVNEFRRKMRKFSEEKILSLVGLSWMDWLKQTYPPEHEPSIPENLEDKLYGGKLIVAVHFENCQDVFSFQVSPNMNPIKVNELAIQKRLTIHGKEDEVSPYDYVLQVSGRVEYVFGDHPLIQFQYIRNCVMNRALPHFILVECCKIKKMYEQEMIAI
notes: range 1-300; also called PI-3K110; p110 catalytic subunit of PI-3 kinase
binding result [1]: binds

B2: PI-3K85, amino acids 1-50 (other, human, UniProt P27986 1-50, looked up)
chain: MSAEGYQYRALYDYKKEREEDIDLHLGDILTVNKGSLVALGFSDGQEARP
notes: range 1-50; also called p85 regulatory subunit of PI-3 kinase; PI-3 kinase p85
binding result [2]: binds | binding result [3]: binds

B3: Glut4, amino acids 434-510 (other, human, UniProt P14672 434-509, looked up)
chain: IGMGFQYVAEAMGPYVFLLFAVLLLGFFIFTFLRVPETRGRTFDQISAAFHRTPSLLEQEVKPSTELEYLGPDEND
notes: range 434-510; also called Glucose Transporter 4
binding result [4]: binds

B4: GLUT1, amino acids 463-492 (other, human, UniProt P11166 463-492, looked up)
chain: IASGFRQGGASQSDKTPEELFHPLGADSQV
notes: range 463-492; also called Glucose Transporter 1
binding result [5]: binds

FTFLRVPETRGRTFDQISAAFHRTPSLLEQEVKPSTELEYLGPDEND (other, human, UniProt P14672 463-509, looked up, range 463-510; also called GLUT4; Glut4) [Glucose Transporter 4, amino acids 463-510]
binding result [6]: binds | binding result [7]: binds | binding result [8]: binds | binding result [9]: binds

B5: Proteosome Activator Subunit Psme3, amino acids 72-254 (other, human, UniProt P61289 72-254, looked up)
chain: LTNSHDGLDGPTYKKRRLDECEEAFQGTKVFVMPNGMLKSNQQLVDIIEKVKPEIRLLIEKCNTVKMWVQLLIPRIEDGNNFGVSIQEETVAELRTVESEAASYLDQISRYYITRAKLVSKIAKYPHVEDYRRTVTEIDEKEYISLRLIISELRNQYVTLHDMILKNIEKIKRPRSSNAETLY
notes: range 72-254
binding result [10]: binds
